Results on 40 sequences are retold here after the nanobody polyreactivity screen of Harvey et al. (2022).

The nature of the series: yeast display, Sf9 membrane polyspecificity reagent, FACS + sequencing; frameworks hold sequencing errors. The gist of the method: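 A synthetic nanobody library was expressed on Saccharomyces cerevisiae BJ5465 by galactose induction for 36–48 hours. The library was stained for 1 hour at 4 °C with 10% biotinylated, detergent-solubilized Sf9 membrane reagent and enriched with streptavidin microbeads before FACS. Low and high (top ~1%) gates were set on anti-HA fluorescence for expression and streptavidin fluorescence for reagent binding, and each polyreactivity label reflects the gate of origin.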
On to “QVQLVESGGGLVQAGGSLRLSCAASGFTFIYNAMGWYRQAPGKERELVAAITGGGGSTYYADSVKGRFTISRDNAKYTVYLQMNSLKPEDTAVYYCNVYYPQSGVTYDYWGQGTLVTVSS”, for which the “polyreactivity (PSR sort gate)” value is reported as “low polyreactivity”.

Regarding “QVQLVESGGGLVQAGGSLRLSCAASGFTFIYYAMGWYRQAPGKERELVAAISTSGGRTYYADSVKGRFTISRDNAKNTVYLQMNCLKPEYTAVYYCAADGHYRYTSRYGLIVRYDYWGQGTQVTVSS”, the “polyreactivity (PSR sort gate)” value is “high polyreactivity”.

“QVQLVESGGGLVQAGGSLRLSCAASGFTFKDYAMGWYRQAPGKERELVAANSRSGGSTYYADSVKGRFTNSRDSAKNTVYLQMNSLKPEDTAVYYCAAAYVRYRDPYGYWGQGTQVTVSS”: the “polyreactivity (PSR sort gate)” value is “high polyreactivity”.

Regarding “QVQLVESGGGLVQAGGSLRLSCAASGFTFKFYAMGWYRQAPGKERELVAAISARGGITYYADSVKGRFTISRDNAKNTVYLQMNSLKPEDTAVYYCAAGVFGHYAFVEFDYWGQGTQVTVSS”, the “polyreactivity (PSR sort gate)” value is “high polyreactivity”.

With “QVQLVESGGGLVQAGGSLRLSCAASGFTFKGYAMGWYRQAPGKERELVAGITSGGRTYYADSVKGRFTISRDNAKNTVYLQMNSLKPEDTAVYYCAAVHYVAYYGYDYWGQGSQVTVSS”, the “polyreactivity (PSR sort gate)” value was “high polyreactivity”.

In the case of “QVQLVESGGGLVQAGGSLRLSCAASGFTFKHYAMGWYRQATGKERELVATITRGGSTNYADSVKGRFTISRDNAKNTVYLQMNSLKPEDSAVYYCAAADYVRYPFTRGYIYQGYDYWGQGTQVTVSS”, the “polyreactivity (PSR sort gate)” value is “low polyreactivity”.

For the sequence “QVQLVESGGGLVQAGGSLRLSCAASGFTFKLNAMGWYRPAPGKERELVAAISWGGGTTYYADSVKGRFTISRDNAKNTVYLQMNSLKPEDTAVYYCAADGTGTYDYWGQGTQVTVSS”, the “polyreactivity (PSR sort gate)” value is reported as “low polyreactivity”.

On to “QVQLVESGGGLVQAGGSLRLSCAASGFTFKLNAMGWYRQAPGKERELVATISSSGGSTFYADSVKGRFTISRDNAKNTVYLQMNSLKPEDTAVYYCAADSGYGPYYYWGQGTQVTVSS”, for which the “polyreactivity (PSR sort gate)” value was “high polyreactivity”.

Take “QVQLVESGGGLVQAGGSLRLSCAASGFTFKLYAMGWYRQAPGNEREWVAAIRRGGTTNYADSVKGRFTISRDTAKNTVYLQMNSLKPEDTAVYYCAADGWYPGVYYPYTEFDYWGQGTQVTVSS”: the “polyreactivity (PSR sort gate)” value is listed as “high polyreactivity”.

As for “QVQLVESGGGLVQAGGSLRLSCAASGFTFKYNAMGWYRQAPGKERELVASISSGSTNYADSVKGRFTISRDNAKNTVYLQMNSLKPEDTAVYYCAASVSRGKRFRYGYVFKMDYWGQGTQVTVSS”, the “polyreactivity (PSR sort gate)” value is “low polyreactivity”.

With “QVQLVESGGGLVQAGGSLRLSCAASGFTFKYYAMGWYRQAPGKEREFVAAISRSGGSTTYADSVKGRFTISRDNAKNTVYLQMNSLKPEDSAVYYCAVAYYTAYTPRDGEYWGQGTQVTVSS”, the “polyreactivity (PSR sort gate)” value is on record as “high polyreactivity”.

Regarding “QVQLVESGGGLVQAGGSLRLSCAASGFTFKYYAMGWYRQAPGKERELVAAIRRSAGSTNYADSVKGRFTISRDNAKNTVYLQMNSLKPEDTAVYYCNTVGTRQPMDYWGQGTLVTVSS”, the “polyreactivity (PSR sort gate)” value is listed as “high polyreactivity”.

As for “QVQLVESGGGLVQAGGSLRLSCAASGFTFKYYAMGWYRQAPGKERELVAAISRGGSTYYADSVKGRFTFSRDNAKNTVYLQMNSLKPEDTAVYYCAARYVRVGYDYWGQGTQVTVSS”, the “polyreactivity (PSR sort gate)” value is given as “high polyreactivity”.

“QVQLVESGGGLVQAGGSLRLSCAASGFTFKYYAMGWYRQAPGKERELVAAITSGGSTYADSVKGRFTISRDNAKITVYLQMNSLKPEDTAVYYCAASIDSGKWLGRRYDYWGQGTQVTVSS”: the “polyreactivity (PSR sort gate)” value was “low polyreactivity”.

Regarding “QVQLVESGGGLVQAGGSLRLSCAASGFTFKYYTMGWYRQAPGKERELVAVISRTGSTNYADSVKGRFTISRDNAKNTVYLQMNSLKPEDTAVYYFITARGKYAFFDVDYWGQGTQVTVTS”, the “polyreactivity (PSR sort gate)” value is “high polyreactivity”.

Take “QVQLVESGGGLVQAGGSLRLSCAASGFTFLGYDMGWYRQAPGKERELVATISSGGRTYYADSVKGRFTISRDNAKNTVYLQMNSMKPEDTAVYYFAAPRFRRLDFDFWGQGTQVTVSS”: the “polyreactivity (PSR sort gate)” value is given as “low polyreactivity”.

As to “QVQLVESGGGLVQAGGSLRLSCAASGFTFLKNAMVWYRQAPGKERELVAAITGSGGSTYYADSVKGRFTISRDNAKNTVYLQMNSLKPEDTAVYYCNVRRGLRAYEYWGQGTQVTVSS”, the “polyreactivity (PSR sort gate)” value was “high polyreactivity”.

Regarding “QVQLVESGGGLVQAGGSLRLSCAASGFTFLKYAIGWYRQAPGKERELVAAISFSTGRTYYADSVKGRFTISRDNAKNTVYLQMNSLKPEDPAVYYGAAGYWPGYSLTYRGGFWGQGTQVTVSS”, the “polyreactivity (PSR sort gate)” value is on record as “high polyreactivity”.

As to “QVQLVESGGGLVQAGGSLRLSCAASGFTFLSNAMGWYRQAPGKERELVATINSGGSTNYADSVKGRFTISRDNAKNTVYLQMNSLKPEDTAVYYCAAKLWRYYHYDYWGQGTQVTVSS”, the “polyreactivity (PSR sort gate)” value is “low polyreactivity”.

Consider “QVQLVESGGGLVQAGGSLRLSCAASGFTFLTYAMGWYRQAPGKERELVAAINNSGGRTYYADSVKGRFTISRDNAKNTVYLQMNSLKPEDTAVYYCAADYLRGKHRYGYWGQGTQVTVSS”, for which the “polyreactivity (PSR sort gate)” value is on record as “high polyreactivity”.

Take “QVQLVESGGGLVQAGGSLRLSCAASGFTFLYNAMGWYRQAPGKERELVASIRTGTGTYYADSVKGRFTISRDNAKNTVYLQMNSLKPEDTAVYYCAAENFYPYTYYASDYWGQGTQVTVSS”: the “polyreactivity (PSR sort gate)” value is “high polyreactivity”.

“QVQLVESGGGLVQAGGSLRLSCAASGFTFNANAMGWYRQAPGKERELVADISLSGGRTYYADSVKGRFTISRDNAKNTVYLQMNSLKPEDTAVYYCAASPDGSFRRFSRVVSGDYWGQGTQVTVSS”: the “polyreactivity (PSR sort gate)” value is “high polyreactivity”.

On to “QVQLVESGGGLVQAGGSLRLSCAASGFTFNANAMGWYRQAPGKERELVAVNTRSGGRTYYADSVKGRFTISRDNAKNTVYLQMNSLKPEDTAVYYCAKEGPSRVYQGTDSASDYWGQGTQVTVSS”, for which the “polyreactivity (PSR sort gate)” value was “high polyreactivity”.

Consider “QVQLVESGGGLVQAGGSLRLSCAASGFTFNDYAMGWYRQAPGKERELVAAIDWSGGRTYYADSVKGRFTISRDNAKNTVYLQMNSLKPEDTAVYYCATEYYDGYFPTFDYDYWGQGTQVTVSS”, for which the “polyreactivity (PSR sort gate)” value is “low polyreactivity”.

For “QVQLVESGGGLVQAGGSLRLSCAASGFTFNDYAMGWYRQAPGKERELVAAISKSGSRTYYADSVKGRFTISRDNAMNTVYLQMNSLKPEDTAVYYCNALPSYYGTYDYWGQGTQVTVSS”, the “polyreactivity (PSR sort gate)” value is given as “high polyreactivity”.

For “QVQLVESGGGLVQAGGSLRLSCAASGFTFNFYAMGWYRQAPGKERELVASITSSGARTYYADSVKGRFTISRDNAKNSVYLQMNSLKPEDTAVYYCAARVYRYSASRAYDYWGQGTQVTVSS”, the “polyreactivity (PSR sort gate)” value is “high polyreactivity”.

Turning to “QVQLVESGGGLVQAGGSLRLSCAASGFTFNGYAMGWYRQAPGKERELVAGITRRGGITYYADSVKGRFTISRDNAKNTVYLQMNCLKPEDTAVYYCARDYIGHALIHHASLYYYWGQGTQVTVSS”, the “polyreactivity (PSR sort gate)” value is listed as “high polyreactivity”.

For “QVQLVESGGGLVQAGGSLRLSCAASGFTFNLYDMGWYRQAPGKERELVAAINWSGGTYYADSVKGRFTISRDNAKNTVYLQMNSLKPEDPAVYYCAADFPYTPWSYHHHVWSPDFDYWGQGTQVTVSS”, the “polyreactivity (PSR sort gate)” value is “low polyreactivity”.

For “QVQLVESGGGLVQAGGSLRLSCAASGFTFNPNAMGWYRQAPGKERELVAPITRSGGSTYYADSVKGRFTISRDNAKNTVYLQMNSLKPEDTAVYYCNAPFRVSTTRRRYPGIDSHYYWGQGTQVTVSS”, the “polyreactivity (PSR sort gate)” value is recorded as “high polyreactivity”.

With “QVQLVESGGGLVQAGGSLRLSCAASGFTFNQNAMGWYRQAPGKERELVAAISASGGSTYYADSVKGRFTISRDNAKNTVYLQMNSLKPEDTAVYYCAARGTYRYTKYNYWGQGTQVTVSS”, the “polyreactivity (PSR sort gate)” value is listed as “high polyreactivity”.

As for “QVQLVESGGGLVQAGGSLRLSCAASGFTFNRNAMGWYRQAPGKERELVAAISWSGGSTYYADSVKGRFTISRDNAKYTVYLQMHSLKPEDTAVYYCAQGYRRVYGPFYYWGQGTQVTVSS”, the “polyreactivity (PSR sort gate)” value is “low polyreactivity”.

Regarding “QVQLVESGGGLVQAGGSLRLSCAASGFTFNRYAMGWYRQAPGQERELVAAISRSGGSTSYADSVKGRFTISRDNAKKTVYLPMHSLKPEDTAVYYCAADRVWYLYYDYNYWGQGTQVTVSS”, the “polyreactivity (PSR sort gate)” value is listed as “high polyreactivity”.

Turning to “QVQLVESGGGLVQAGGSLRLSCAASGFTFNSYAMGWYRQAPGKERELVAAITWRGGSTYADSVKGRFTISRDNAKNTVYLQMNSLKPEDTAVYYCNAVSDVKRYDYWGQGTQVTVSS”, the “polyreactivity (PSR sort gate)” value is “high polyreactivity”.

Turning to “QVQLVESGGGLVQAGGSLRLSCAASGFTFNTNAMGWYRQAPGKETELVAAITWTGGRTYYADSVKGRFTISRDNAKNTVHLQMNSLKPEDTAVYYCAAESFGYSIDITDHEYWGQGTQVTVSS”, the “polyreactivity (PSR sort gate)” value was “high polyreactivity”.

In the case of “QVQLVESGGGLVQAGGSLRLSCAASGFTFNYNARGWYSQAPGNDRELVAAIRRSGGSTYYADSGKGRFTISRDNAKNTVYLQMNSLKPEDTAVYYCAARQSFLYGYWGQGTQVTVSS”, the “polyreactivity (PSR sort gate)” value is “high polyreactivity”.

In the case of “QVQLVESGGGLVQAGGSLRLSCAASGFTFNYYAMGWYRQAPGKEREFVAAISRSAGSTYYADSVKGRFTISRDNAKNTVYLQMNSLKPEDTAVYYCAADPRSKGFYYGYDYWGQGTQVTVSS”, the “polyreactivity (PSR sort gate)” value is “high polyreactivity”.

Regarding “QVQLVESGGGLVQAGGSLRLSCAASGFTFNYYAMGWYRQAPGKERELVAAISGRGGSTYYADSVKGRFTISRDNAKNTVYLQMNSLKPEDTAVYYCAADYWYDYYSTEYDYWGQGTQVTVSS”, the “polyreactivity (PSR sort gate)” value is given as “low polyreactivity”.

Take “QVQLVESGGGLVQAGGSLRLSCAASGFTFPANDMGWYIQAPGKERELVATITWSGGNTYYADSVKGRFTISRDNAKNTVYLQMNSLKPEDTAVYYCAKDYDPYHEQQSSEHDDYWGQGTQVTVSS”: the “polyreactivity (PSR sort gate)” value is “low polyreactivity”.

In the case of “QVQLVESGGGLVQAGGSLRLSCAASGFTFPDNAMGWYRQAPGKERELVAAITTSGGRTYYADSVKGRFTISRDNAKNTVYLQMNSLKPEDTAVYYCARPSRRTGREYGYWGQGTQVTVSS”, the “polyreactivity (PSR sort gate)” value is on record as “high polyreactivity”.

Turning to “QVQLVESGGGLVQAGGSLRLSCAASGFTFPDYAMGWYRQAPGKERELVAAISSDCSTYYADSVKGRFTISRDNAKNTVYLQMNSLKPEDTAVYYCAAYVVWLYGYDYWGQGTQVTVSS”, the “polyreactivity (PSR sort gate)” value is reported as “low polyreactivity”.
